In patent US20200062840A1 (KINDRED BIOSCIENCES, published 2020):
Positions count from the first letter of the chain named. Each block holds one binder with its values, some of them ahead of it.

Legend:
[1] = molecular target: biotinylated equine IL31 (equine); assay: BLI, biotinylated equine IL31 immobilized to the sensor; preliminary measurement; lower end of the range; preliminary measurement
[2] = molecular target: biotinylated equine IL31 (equine); assay: BLI, biotinylated equine IL31 immobilized to the sensor; preliminary measurement; upper end of the range; preliminary measurement
[3] = molecular target: T1, canine IL31 with C-terminal polyHis tag (canine, biotinylated at primary amine groups (NHS-LC-Biotin) or at glycan groups (Biotin-LC-Hydrazide)); assay: BLI (Octet), canine IL31 (amine-conjugated-biotin) on streptavidin tips, antibody at 400, 200, 66.6 and 33 nM, 2:1 model; canine IL31 (amine-conjugated-biotin)
T1 construct: also called biotinylated canine IL31; canine IL31 (amine-conjugated-biotin); not shown: C-terminal poly-His tag
T1 chain: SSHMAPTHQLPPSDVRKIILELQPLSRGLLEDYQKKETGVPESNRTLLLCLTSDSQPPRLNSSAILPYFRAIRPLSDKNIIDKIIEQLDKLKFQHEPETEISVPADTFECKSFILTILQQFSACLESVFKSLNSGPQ
Method: (§1) The binding analysis was performed using a biosensor Octet as follows. Briefly, canine IL31 was biotinylated at primary amine groups using EZ-Link™ NHS-LC-Biotin (Thermo Scientific, Catalog No. 21336) or at glycan groups using EZ-Link™ Biotin-LC-Hydrazide (ThermoFisher Scientific, Catalog No. 21340) according to the manufacturer's instructions. The free unreacted biotin was removed from biotinylated IL31 by extensive dialysis. Biotinylated canine IL31 was captured on streptavidin sensor tips. The association of four different concentrations (400, 200, 66.6, and 33 nM) of chimeric and caninized M14 antibody and human and canine IL31 (amine-conjugated-biotin) and the association of 100 nM of caninized M14 antibody and canine IL31 (glycan-conjugated-biotin) was monitored for ninety seconds. Dissociation was monitored for 600 seconds. A buffer only blank curve was subtracted to correct for any drift. The data were fit to a 2:1 binding model using ForteBio™ data analysis software to determine the kₒₙ, koff, and the Kd. The buffer for dilutions and all binding steps was: 20 mM phosphate, 150 mM NaCl, pH 7.2.

[4] = molecular target: T1, canine IL31 with C-terminal polyHis tag; assay: BLI (Octet), canine IL31 (glycan-conjugated-biotin) on streptavidin tips, antibody at 100 nM, 2:1 model; canine IL31 (glycan-conjugated-biotin)
Method: as §1

biotinylated equine IL31 (equine), sequence (chain, as listed by the source limits assumed, form in doubt): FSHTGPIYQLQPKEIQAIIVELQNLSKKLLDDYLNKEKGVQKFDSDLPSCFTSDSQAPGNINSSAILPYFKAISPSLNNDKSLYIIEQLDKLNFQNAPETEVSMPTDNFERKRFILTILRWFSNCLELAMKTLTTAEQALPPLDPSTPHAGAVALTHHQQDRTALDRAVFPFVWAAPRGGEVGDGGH

Kd [1]: > 10 nM
Kd [2]: < 50 nM
B1: mouse monoclonal antibody M14 (antibody, V domains shown)
VH: EVQLQESGPSLVKPSQTLSLTCSVTGDSITSGYWNWIRKFPGNKLEYMGYISYSGITDYNPSLKSRISITRDTSKNQYYLQLNSVTTEDTATYYCARYGNYGYAMDYWGQGTSVTVSS
VL: DIVLTQSPASLAVSLGQRATISCRASESVDTYGNSFMHWYQQKSGQSPKLLIYRASNLESGIPARFGGSGSRTDFTLTIDPVEADDVATYYCQQSYEDPWTFGGGTKLEIK

Kd [3]: < 0.01 nM
Kd [4]: < 0.001 nM
koff [4]: < 1e-07 s⁻¹
B2: caninized M14 IgG-B (antibody, V domains shown)
VH: B1 VH with Q5V, S15G, Q16G, T17S, S19R, S68T, T70S, S113L
VL: DIVMTQSPASLSVSLGQRATISCRASESVDTYGNSFMHWYQQKPGQSPKLLIYRASNLESGIPARFGGSGSGTDFTLTIDPVQADDVATYYCQQSYEDPWTFGGGTKLEIKR
notes: canine IgG-B heavy chain and canine light chain constant region; also called caninized M14 antibody
